Experimental data from patent publication US7056679 (ANTYRA, dated 2006).
No end group written: not given here.

T1: DGI-2 (UniProt Q15004 1-111, limits assumed)
T1 construct: Soluble recombinant DGI-2 made by in vitro translation (RTS, pIVEX2.3-MCS vector) and coated on plates for the ELISA; vector tag not described; also called KIAA0101; DGI-2 polypeptide
T1 sequence (looked up): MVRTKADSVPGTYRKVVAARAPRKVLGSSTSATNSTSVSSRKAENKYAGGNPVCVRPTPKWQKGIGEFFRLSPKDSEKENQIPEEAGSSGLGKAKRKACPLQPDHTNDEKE


Biological target: T1, DGI-2
Assay: phage ELISA, coated DGI-2
Description: For analysis of individual target binders, colonies were picked and phage prepared as described above using helper phage, M13KO7. Ninety-six-well microtiter plates were coated with 500 ng/well of specific target protein, 500 ng/well lactate dehydrogenase (LDH) irrelevant or non-specific target, 500 ng/well of positive control antibody raised against ETAG, and negative control of non-fat milk powder-PBS 2% at 4° C. overnight. Plates were then blocked with 350 microliters/well PBS containing 2% non-fat milk for 1 hr at room temperature. One hundred microliters per well of phage from isolated clones were added and plates were incubated at room temperature for 2 hr after centrifuging samples for 20 minutes at 3500 rpm at 4° C. The phage solution was then removed, and the wells were washed three times with PBS at room temperature. Antibody raised against M13 conjugated to horseradish peroxidase (Pharmacia) was diluted 1:3000 in PBS-Tween and added to each well (100 µl/well). Incubation was for 1 hr at room temperature, followed by washing with PBS-(0.5%) Tween 3 times as described. Color was developed by addition of ABTS solution (100 µl/well; Boehringer, Indianapolis, Ind.). Plates were analyzed at 405 nm. A clone was considered "positive" if the $A405$ of the well was $\geq$2-fold over background.

Binder	binding result
MFQDVACDLWHSVRCLRRDV (not fully specified (bridges); cysteine pairing not given here, on M13 phage, pIII fusion with E-tag) [DGI-2-20R-3-B3]	binds
SRPGWCSRGTAWGFPGCSSS (not fully specified (bridges); cysteine pairing not given here, on M13 phage, pIII fusion with E-tag) [DGI-2-20R-3-C4]	binds
SIILAGCVWVMPCGQNLGGV (not fully specified (bridges); cysteine pairing not given here, on M13 phage, pIII fusion with E-tag) [DGI-2-20F-PP-C4]	binds
MGVVLECEGGWSIPGQTCYF (not fully specified; cysteine pairing not given here, on M13 phage, pIII fusion with E-tag) [DGI-2-20R-3-C7]	binds
EVFVSVWVFRFRVMPVTPGGT (on M13 phage, pIII fusion with E-tag) [DGI-2-20F-PP-E6]	binds
GWGCSVPGILCVGGHRQGGG (not fully specified; cysteine pairing not given here, on M13 phage, pIII fusion with E-tag) [DGI-2-20R-3-B11]	binds
LGRTFVWGTCLHLSVSRFGH (on M13 phage, pIII fusion with E-tag) [DGI-2-20F-PP-C3]	binds
REFFNQASRGAWGYMFREWVEG (on M13 phage, pIII fusion with E-tag) [DGI-2-40F-3-A1]	binds
MSSTAWTDRILQRGIGLGPV (on M13 phage, pIII fusion with E-tag) [DGI-2-20R-4-F1212]	binds
VLQRSLWKDWVDGVMHGGGSRGV (on M13 phage, pIII fusion with E-tag) [DGI-2-20R-3-A7]	binds
DGKHLTKWSGRGWWSAWVGG (on M13 phage, pIII fusion with E-tag) [DGI-2-20R-3-B12]	binds
LPQSRWLSEAWASWVDGVVD (on M13 phage, pIII fusion with E-tag) [DGI-2-20F-4-F9]	binds
GGGRESWGGGWFMGWGSGAG (on M13 phage, pIII fusion with E-tag) [DGI-2-20R-3-A6]	binds
VHSQGRMWAIPGLRGGTGAS (on M13 phage, pIII fusion with E-tag) [DGI-2-20R-3-D7]	binds
YGTAGLFLRRACTMSDPGDPLGRRGYTGWGVLWDEWVTGS (on M13 phage, pIII fusion with E-tag) [DGI-2-40F-3-C8]	binds
SSVWATWGSDLRTFGSVGFL (on M13 phage, pIII fusion with E-tag) [DGI-2-20F-PP-C7]	binds
YTPASILTGFQRGYEGAGNG (on M13 phage, pIII fusion with E-tag) [DGI-2-20R-4-G7]	binds
RPVVCLAGLTLAQFGWVFPGWRGWS (on M13 phage, pIII fusion with E-tag) [DGI-2-20C-3-C1039]	binds
VVRQGCMAFSGLCSGVTESE (not fully specified; cysteine pairing not given here, on M13 phage, pIII fusion with E-tag) [DGI-2-20R-3-C8]	binds
DAGIGWVGSMWFPPGCIGAC (not fully specified (bridges); cysteine pairing not given here, on M13 phage, pIII fusion with E-tag) [DGI-2-20R-4-E82]	binds
RNWLDKDCVWMGDCGARAGE (on M13 phage, pIII fusion with E-tag) [DGI-2-20F-4-E3]	binds
TVKFQGVVQERSRIAGFRYCGDHAVSWGLAGCPALRDKLQ (on M13 phage, pIII fusion with E-tag) [DGI-2-40F-3-C424]	binds
